Experimental data published in the NTF2 design screens of Basanta et al. (2020).

assay: protease stability score; higher = more stable; yeast display proteolysis, trypsin and chymotrypsin;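 further: log10 excess protease needed over predicted unfolded state with 0 meaning unfolded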

In order of falling protease stability score:
1. DEREEAKRLWERFVRAIQHGDERRLRELLPPDVRVTVGDKEYHGRDQAVTWLQELAERVDHVSFDVRHIEVENGRLDIDAKVQMENNGRQHSFTLRIIADDHNGKFVIRSITYQ  1.84
2. DERDQNRKAEEAAHALRDGDERRISEMFDKNAHATVGDQTYTGREEIMKWVHDIKKRYDHVTLHDVKVHNGRADLDMVFNHNGKEDRIRIDIQFQGDKIKHVSVRSK  1.69
3. DERDLKEAIDNIRTNNFDELNKMADPNVKAVIGNKTIHGRETINKFLHRLSQQVDHVRIRHYHTRGDHLHVDFKVHFDGKDVKLRIVIRVNNGKITYIQIDVTSEEQLEELDEIVD  1.59
4. DERDVKSVIDLVKTGDFDQMVRNADKDVKIRIGDKHVHGREQASEAMKKFTDQIDHYEVKSVNVNNGRVIVEAVFVVNGEKITVTVIVEAQNGRITHVEWRYRDEHDKKLLRKILG  1.47
5. DEREARDVQHRINKNDPQSHEDQVDEDVKLQIGDTTWHGREELNDVIRRVRESADHIKYERVEVDGDTVVADVVYTINGKNIKLRLVVHVKNGRIKYMNMTATNPDDLRTLNEIIQ  1.25
6. DERDANEMMRVIREGDFNKFRQMADENVSAVYGDKTVRGRETIKRIIHRIKRHVDHLKVDSLSTTGDHVTVDAVMHVNGQRVHFVMVVRVQNGHIKEVQFEVRNEEAQKRLEQVLS  1.18
7. DEREAKKVVEDLKRGDWNKLMQLVDPNAKAVVGDKRVHGREQVQHMMQQFQDRIDHMEIRSVRVHNGRIEVDATFIFNGQSVRVIFHITVHNGRIQEIHVQATNEKVKHQLRKFLS  1.07
8. DERDEKRLNETAHRLVKTGDPDQWARLADKDVHVRVGDKKWEGREQLRDLLSRIVKNVDTHQVDTVTAKNGRITIRMVLNINGRNLTIWVTMVIHNGKIKEVEVRVRSEKERKKLES  0.981
9. DERAEELLQRWMDAQRTGNPDEFVKLLDPNARYVVGDKEIHGSEQFKTHWQRQQDEMNVKVDVEDVKFSGNKISVRFHIEVDVNGRPLTDTATATWDLHNGRIKRQVYHLDPEFLRQVDS  0.936
10. DERDRHKQVEEMINAFDDGDEETIKELMDEDVRAQIGNKRVHGQENVSRILKEFRDRADHIQVDTYHVEGDRAQIHAKVEVNGRRIKVSIHVQLENGRFKSFVIEYTDSDKLREMQS  0.909
11. DERDVHRIAEQLIKAMQTGDEKKLTDLADKDAEAQIGDKEIHGNHDFSRAMREFRERVDHIELKDIRVHNGHVSVDIVADINGVQLRFVITMEVKNGKVRQLSVEVRDPEQEKTALS  0.9
12. DERAVKRMEKFIKVLINGNPDDLKEYLDENVKVDVGDKRIHGRETFMNEAEKDKRQMSVSLKEVRVDAHNGRLQVNARVHINHNGTPRDKEYVMQAILHNGRIKSMRVQSTG  0.835
13. DERDLKEALDLVKTGDFTRIARMADENVKLKVGDKDVHGREDAKRLMSQLEKQVDHYEIDDVTLEGNSASIDAHFNVNGNRIRFVVVIHVHNGKIKHFTIHVRDEEDKDKLRKDDG  0.799
14. DERDATNAIESVMKAIKEGDPDQMQKNADPNARLQIGDKVYHGRETIVTLLKELAHRVDHLQIDSMHQHNGRVTVSILVQVNGQRRTVNIEAQARDGRLKNMHIDPEFWRQLER  0.781
15. DERDMKAIVRAVKAFRRNNPEEVRENVDENVRIHVGDKEVHGRDQLKRDMEREVKTWRRSIRRISIDNQGDTVNVDIDQEKKHDGDPNREQNVVHFVAQNGKIKSVEQRHDG  0.748
16. DERDQKHLAELIAKALETGDFKLAQKNVDENVRVKVGDETLHGKDNMQKWAEENHRRVDHLQLNDIKIHNGRVVINMRAVVNGKDFRLDIKIQFDNGKIHVVSIDPRVERHIKS  0.733
17. DERDHVRRLLNTWLKVVKRNDEDQARRLADPNARVEVGDKTYSGDEKVVELMHKIRQQYDSIDIHLHTVKREGDFIHAKAKMDAKVNGKQEDVTMFIWFKQHNGEWHILQVIIK  0.723
18. DERDADEIAKVFVHNNPKDIERMVDEDVRIIIGDFEVQGREEARKYAEQLEKHIDHNHVRDYRVEGNKVTLDVNVVVNGRSLTFVVHITMHNGHVKEIRVQFTSPEDQKVFKEVVG  0.719
19. DERDLHRQAEDVATAWQTGDSHQFEKLASENVRYVIGDKSYKGKEQVKDMLTEIDKQADHRRVSSMTVHGNKIVVVITVHYNGRTRRLNVVFDVHNGRVRQVDLSIG  0.701
20. DERALKMIREFEEIRSKGDERQLSEQVDKDADFHVGDKRLTGMDRVASELVQEVRDWRVSVDIKRMSISNGSLDIDAQVRFSHNGKPVTVHLDLKIIVHNGTIKQIEITNQP  0.698
21. DERASELAEKIIKALHTGNPQEVQKLVPPDVHVVYGDKNIHGRENAKKYWDQVLRNWRLNIQDFRIDADGDNVTVELHAEFNVNGQPIQARATVTVNVKNGRVKELNVQLPHEDLRRIRQ  0.619
22. DERAKEVFKELIEAWKHGNEDQVREMADKDARFTVGDKEIHGREEWAKQIRERHEKIRFEMRIRHVHVNGDRLSIEADFSVDINGQPLSYRMKIELRIHNGKIKELVFQVSEEDKNKQKR  0.576
23. DERDLEEVNRLVKHGNWHEFVKNADKNVRARVGDKRVHGREHFKSLAENWRRRIDHQSIKFVDVQGERAVVTMKMNVNGKTVEVMFSFVVSNGHIKEYEMRARNDDDETRLQEVRS  0.478
24. DERAREIVTRYFTALERGDPDKARKLADKDVRISVGDTQINGHDQMARTIDKQKKHMRIRFEDVKIHVNNGRADVKFHAVFEHNGKPERKNRTIIFNVHDGRIKEIQAQDDE  0.321
25. DERDNKVVEEYIKALQRGDPKQARRQADPNARFQVGDTELHGMDDVARKIERETKQWRLEIHHVKVDVKGDKMTIRLDFVVEVNGHPKRMNLTVEAHAHNGKIKEMVMHVDPKQEEELKS  0.188
26. DERARERVEELLQVENDGDPDKVMEYFDPNAKAEIGDKHIHGRETFRHRLERTNKEMRYHLEVEHIRVNGNNVEMTFRAETEHNGQPSHDRNHAVLHITNGRIKYKRVKRDG  0.178
27. DERDADKVRQLYENEQHGDEHKVMQLVDKDVRFQYGDHEVQGREQQKKLVKERQDKARFELKSVDARDHNGRVRVDVRWVAEVNGRPHEDTIEVVVEIHNGKVKHVEFRVDPDHWTEVMQ  0.152
28. DERDDRQLNHLFRDLVHGDPDEADKLVDPNVQFTYGDRTYSGNDELQRLIDNWKKELHVTVKDIRVENQGDKVVIHIEMEYTHNGQPTSYKMSVRATAHNGKVKHMNMTSQS  0.103
29. DERDVKRVEEWVKAEHTGDKDKMKELLDENAEIQIGDRSITGRETRAEELRKRQEQMRVRFRKVDFQHRNGQARVDMDVQNDHNGKPHTHRVDANFQLHNGKVQRVKMTSHK  0.099
30. DERDQRRRMDQARKILKNNDEEKFNRLLDENARMRVGEKVFHGRRQARTHLKRLHEHVDSIRVNHVSVHNGNVEVVVTMQHNGRYRQIRFDMQVHNGRAKEVKIDTS  0.091
31. DERAKEQMKNFQQAVSEGDPDQFRELMDKDARMVIGDQQLHGREKMMHQWQRLTRRIRREVKSVDVQVRGDTAELDIHFEQRKDGQPTKNSAVLEAVVHNGKVKELRVKNKR  0.078
32. DERDQELFQNFIKALQTNNPDQVMEQVDPNAEIQYGDRVVRGRHQLRREVEQEHHEMRNDIKVRSIRANNGHVEATFDVVFEINGKPVENRVSVILEMRDGRAKHIEWRIPSEVKEQLKG  0.059
33. DERDMTKVFDALLKNDEDTVKDQLDEDVQVTVGDKKVHGREQAQETWERLLQRADHINMKSFTTRGDRAVAIVVARVNGHKLEWEYRFKASNGKVEHARIDFRDDDEERKFENALR  0.024
34. DERALRNWRRLETAVNTNNPDKVQKLMDKDVKYEVGDKTIRGRRHAAQSLVERVNKIHLDIKSVTATDSGDNVRIRLDAVRNHNGRPHRDVLNITVKADNGKIVSVKTTKDG  0.001
35. DERAIRTVTRFWTAIKHNDPDKAVENVDPNARFRIGDREVDGDEDAKQWIEEMKRHMHIDIRSLRARDQGDKIEINFKFVISYNGRPQSQTQHATARVHNGKIHEVDINFDDQKKRELDS  -0.006
36. DERAEELVKRIFEALHDGDPQKFVNNIDPNARVNIGDEEIHGRKDAEREIQKRLEHSRVRFDLRSFRVSNGRAEATANVQENHNGRPQTNTVKATFVIHDGRVKEINMQHDG  -0.101
37. DERDRRVMEDFFRALEEGDPDTLRQNMDKDAKLVIGDKTYHGREEIATRIVQHIEHAHVRMRVDSIRAHNGRVEVNVTFMVNHNGRPRSDRMNVEAVIRNGKIKELHLVTEK  -0.131
38. DERAQDLVRQWLENVHTGDPSKLREQMDPNAHVVIGDRTFTGRENFAETVHHHLQDQRVQYDTMRIENEGEKARFRYKATVQHNGQPSKHQATAQLTLHNGRIQSLQMESTQ  -0.162
39. DERDLKTFLDILERNDEDKLQTMADENVELQVGDKTFHGREEFQKYVQHVRDQVDRVDVRDYRIDNGRASVRVIFDFNGKNLDVVMVFSVRNGRVKYFSIQYRDEEVKKMLEEIEG  -0.172
40. DERDQVKRAKEYLHAFNQGDPDEADKNADPNAKVDVGDHRYHGREEFDKAVKTFKDQVDHIEVKDVKAQGNHASARVTADVNGHTLDMIITVELHNGKVKSYVVKKK  -0.175
41. DERDAKKRIKDMIEALHTGDPDEFKRNLPPNARLEYGDKRVHGREQLAREVEKERKRFDHVEVKHIKVDNGRVHVELDLNVNGRTETRELVFNVSNGRVEEVHIRVP  -0.186
42. DERAHSHVEDFFRNLKSGNEDEIRKLLDPNARIKVGDKVIHGRDDAKRYVQQQKREMRMEYDVKTVDAQGDKIQVQVNVTQQHNGRPVQYQQNLHMTVENGDIHTVNYQMDTRIERVQES  -0.231
43. DERAHEAIENWLRAEQTNDPKQVKDNADPNARVHVGDKVLHGMEEIQDELKRRIDQARYHIKDFHIDIQGEKAQIDREYTFSINGRPMSNTVRQEAKVDNGKIKEVNFRVSEELEDQEHK  -0.242
44. DERALDVVRKYQEALNSNDPEHLVELIDPNAKLQVGDKTIHGREQLHHEAQKRKDEMRLNVEVHDLRDRGSTVQIHARRSYSHNGRPRSERYVLHATIRGDKIDKMHFQTDS  -0.243
45. DEREAASVAMRAAQAFVTGDEKTFVDNVDPNARVTVGDKHLHGREHIQDHIRKLKTRVDHHEIHDYKVHGNKATMDVRVVFDGRTRDKKIFAVAHNGRVQEMRVEDG  -0.299
46. DERARNVLKRIMHALRENNEEEFKKNADPNVRIHVGDKQYHGREDAARKIMTTLKSMKERIDVKSVDVEGDQIELHADVQVEENGQPDTKEIRVHADIQGDKMRSMKVDDTK  -0.308
47. DERAVEVLERFLEAQKTGNEEDLKKQVDPNARIQIGDKQVHGMDQAARNLVDTYEEIQIDFRIDRMSAHNGNVTVEAHQQINVNGRPFRNSVTMHAYLQGDKAKEINYRVPEKFENEVKS  -0.326
48. DEREAENARNYQENQKTNNPQKLQELVDPNVHWQVGDKSYKGRETQKKEMDNKRNHIREHIEHVEVRSHGDKVEAKYTAYADINGDPVRMRFDQVMVVHNGRLTEVNVDMSEDQKRKQES  -0.46
49. DERALDVARQLVEALNTGDPETANNLLDKNVHIRVGDKRIHGRKQHSRTVDREKKEIRRHLEKVTNKSKGDKADVDIQFQQTHNGRPTSNQMKMIVEARNGKVKRMSVREHG  -0.469
50. DERDAETWTRMLEAVEYNNPEEVRKNADPNANFVYGNKTITGREQYAEEMKKEMDDMRKHVKIDDYHVEGDNIHVSAKFEWEVNGTPVRDTVSVQFVAENGKVRSVQYRFDPDSERKEDQ  -0.641
